Results reported in patent publication US20190112340A1.

Legend:
sc10 DS-Cav1 = test: BLI (Octet), F on Ni-NTA tips, Fab in solution
[1] = biological target: sc9-10 DS-Cav1 Q98C, Q361C L95M-I221M-R429K (B18537); test: BLI (Octet), F on Ni-NTA tips, Fab in solution
[2] = biological target: sc9-10 DS-Cav1 N183GC,N428C; test: BLI (Octet), F on Ni-NTA tips, Fab in solution
[3] = biological target: sc9-10 DS-Cav1 A149C, Y458C S46G-S215P-K465Q (A2); test: BLI (Octet), F on Ni-NTA tips, Fab in solution
sc11 DS-Cav1 = test: BLI (Octet), F on Ni-NTA tips, Fab in solution
[4] = biological target: sc9-10 DS-Cav1 A149C, Y458C S46G-N67I-E92D-S215P-K465Q (A2); test: BLI (Octet), F on Ni-NTA tips, Fab in solution
[5] = biological target: sc9-10 DS-Cav1 A149C, Y458C S46G-E92D-S215P-K465Q (A2); test: BLI (Octet), F on Ni-NTA tips, Fab in solution
[6] = biological target: RSV F sc9-10 DS-Cav1 (human RSV subtype A (strain A2)); test: BLI (Octet), F on Ni-NTA tips, Fab in solution
[7] = biological target: sc9-10 A DS-Cav1 A149C, Y458C; test: BLI (Octet), F on Ni-NTA tips, Fab in solution
[8] = biological target: RSV F sc9-9 DS-Cav1 (human RSV subtype A (strain A2)) (UniProt P03420); test: BLI (Octet), F on Ni-NTA tips, Fab in solution
[9] = biological target: RSV F sc9 DS-Cav1 (human RSV subtype A (strain A2)); test: BLI (Octet), F on Ni-NTA tips, Fab in solution
sc9-24 DS-Cav1 = test: BLI (Octet), F on Ni-NTA tips, Fab in solution
[10] = biological target: sc9-10 DS-Cav1 N183GC, N428C S46G-N67I-E92D-S215P-K465Q (A2); test: BLI (Octet), F on Ni-NTA tips, Fab in solution
sc9 DS-Cav1-105Q = test: BLI (Octet), F on Ni-NTA tips, Fab in solution
[11] = biological target: sc9-10 DS-Cav1 Q98C, Q361C S46G-E92D-L95M-S215P-I217P-I221M-R429K-K465Q (Long (VR26)); test: BLI (Octet), F on Ni-NTA tips, Fab in solution
[12] = biological target: RSV F DS-Cav1 (human RSV subtype A (strain A2)) (UniProt P03420); test: BLI (Octet), F on Ni-NTA tips, Fab in solution
sc9-19 DS-Cav1 = test: BLI (Octet), F on Ni-NTA tips, Fab in solution
sc8 DS-Cav1 = test: BLI (Octet), F on Ni-NTA tips, Fab in solution
[13] = biological target: bRSV F 391-2 sc9 DS-Cav1 Q98C Q361C (bovine RSV, strain 391-2) (UniProt P22167); test: Fab binding to purified bRSV F trimer (Octet BLI as in Example 1)
[14] = biological target: bRSV F 391-2 DS-Cav1 (bovine RSV, strain 391-2) (UniProt P22167); test: as above
[15] = biological target: bRSV F ATue51908 DS-Cav1 (bovine RSV, strain ATue51908) (UniProt P22167); test: as above
[16] = biological target: bRSV F strain 391-2 sc9-10, DS-Cav1, Q98C-Q361C (bovine RSV, strain 391-2); test: as above
[17] = biological target: bRSV F ATue51908 sc9-10 DS-Cav1 A149C Y458C (bovine RSV, strain ATue51908 (NP_048055.1)); test: as above
[18] = biological target: bRSV F RB94 DS-Cav1 (bovine RSV, strain RB94) (UniProt P23728); test: as above
sc9-10 Cav1only 99-362 = test: ELISA after 1 week at 4 °C
[19] = biological target: sc9-10 N183GC N428C Long CAV1only; test: ELISA after 1 week at 4 °C
sc9-10 Cav1only 99-361 = test: ELISA after 1 week at 4 °C
sc9-10 Cav1only 369-455 = test: ELISA after 1 week at 4 °C
[20] = biological target: sc9-10 A149C Y458C Long CAV1only; test: ELISA after 1 week at 4 °C
RSVF Cav1only = test: ELISA after 1 week at 4 °C
RSVF dFP = test: ELISA after 1 week at 4 °C
sc9-10 Cav1only 98-361 = test: ELISA after 1 week at 4 °C
sc9-10 Cav1only 100-360 = test: ELISA after 1 week at 4 °C
sc9-10 Cav1only 99-360 = test: ELISA after 1 week at 4 °C
sc9-10 Cav1only 98-362 = test: ELISA after 1 week at 4 °C
sc9-10 Cav1only 146-458 = test: ELISA after 1 week at 4 °C
sc9-10 Cav1only 100-362 = test: ELISA after 1 week at 4 °C
sc9-10 Cav1only 98-360 = test: ELISA after 1 week at 4 °C
sc9-10 Cav1only = test: ELISA after 1 week at 4 °C
[21] = biological target: RSV F DS-Cav1 (human RSV subtype A (strain A2)) (UniProt P03420); test: ELISA after 1 week at 4 °C
sc9-10 Cav1only 100-361 = test: ELISA after 1 week at 4 °C
[22] = biological target: sc9-10 DS-Cav1 N183GC,N428C; test: BLI (Octet), antibody reactivity over time at 60 °C
[23] = biological target: sc9-10 DS-Cav1 A149C, Y458C S46G-S215P-K465Q (A2); test: as above
[24] = biological target: sc9-10 DS-Cav1 A149C, Y458C S46G-N67I-E92D-S215P-K465Q (A2); test: as above
[25] = biological target: sc9-10 DS-Cav1 A149C, Y458C S46G-E92D-S215P-K465Q (A2); test: as above
[26] = biological target: sc9-10 A DS-Cav1 A149C, Y458C; test: as above
[27] = biological target: sc9-10 DS-Cav1 N183GC, N428C S46G-N67I-E92D-S215P-K465Q (A2); test: as above
[28] = biological target: RSV F DS-Cav1 (human RSV subtype A (strain A2)) (UniProt P03420); test: as above

## 5C4 (Fab)
sc10 DS-Cav1
  Kd: 38.1 nM
[1]
  Kd: 101 nM
[2]
  Kd: 14 nM
[3]
  Kd: 92.2 nM
sc11 DS-Cav1
  Kd: 58.8 nM
[4]
  Kd: 127 nM
[5]
  Kd: 315 nM
[6]
  Kd: 26.2 nM
[7]
  Kd: 32.1 nM
[8]
  Kd: 17.9 nM
[9]
  Kd: 31.3 nM
sc9-24 DS-Cav1
  Kd: 20.8 nM
[10]
  Kd: 79.7 nM
sc9 DS-Cav1-105Q
  Kd: 28.8 nM
[11]
  Kd: 35.8 nM
[12]
  Kd: 13 nM
sc9-19 DS-Cav1
  Kd: 22.6 nM

## AM14 Fab
[1]
  Kd: 18.5 nM
[2]
  Kd: 787 nM
[3]
  Kd: 35.1 nM
[4]
  Kd: 1 nM
[5]
  Kd: 15.9 nM
[6]
  Kd: 6.6 nM
[7]
  Kd: 6.3 nM
[8]
  Kd: 3.3 nM
[9]
  Kd: 33.1 nM
sc9-24 DS-Cav1
  Kd: 25.1 nM
[10]
  Kd: 2210 nM
sc9 DS-Cav1-105Q
  Kd: 46.2 nM
[11]
  Kd: 33.9 nM
[12]
  Kd: 3.3 nM
sc8 DS-Cav1
  Kd: 1330 nM
sc9-19 DS-Cav1
  Kd: 25.6 nM
[13]
  Kd: 8.6 nM
[14]
  Kd: 1.8 nM
[15]
  Kd: 4.8 nM
[16]
  Kd: 12.8 nM
[17]
  Kd: 12.8 nM
[18]
  Kd: 4.9 nM

## AM14 antibody
sc9-10 Cav1only 99-362
  ELISA signal (antigenicity): 0.805
[19]
  ELISA signal (antigenicity): 0.0514
sc9-10 Cav1only 99-361
  ELISA signal (antigenicity): 2.64
sc9-10 Cav1only 369-455
  ELISA signal (antigenicity): 0.0785
[20]
  ELISA signal (antigenicity): 0.211
RSVF Cav1only
  ELISA signal (antigenicity): 2.81
RSVF dFP
  ELISA signal (antigenicity): 0.05
sc9-10 Cav1only 98-361
  ELISA signal (antigenicity): 0.356
sc9-10 Cav1only 100-360
  ELISA signal (antigenicity): 0.344
sc9-10 Cav1only 99-360
  ELISA signal (antigenicity): 0.0553
sc9-10 Cav1only 98-362
  ELISA signal (antigenicity): 0.516
sc9-10 Cav1only 146-458
  ELISA signal (antigenicity): 0.102
sc9-10 Cav1only 100-362
  ELISA signal (antigenicity): 0.0541
sc9-10 Cav1only 98-360
  ELISA signal (antigenicity): 0.199
sc9-10 Cav1only
  ELISA signal (antigenicity): 3.31
[21]
  ELISA signal (antigenicity): 1.71
sc9-10 Cav1only 100-361
  ELISA signal (antigenicity): 0.0969
[22]
  T1/2 of AM14 reactivity at 60 °C: 33.8 h
[23]
  T1/2 of AM14 reactivity at 60 °C: 6 h
[24]
  T1/2 of AM14 reactivity at 60 °C: 7.5 h
[25]
  T1/2 of AM14 reactivity at 60 °C: 8.3 h
[26]
  T1/2 of AM14 reactivity at 60 °C: 7.8 h
[27]
  T1/2 of AM14 reactivity at 60 °C: 27.1 h
[28]
  T1/2 of AM14 reactivity at 60 °C: 1.4 h

## AM22 (Fab)
sc10 DS-Cav1
  Kd: 0.3 nM
[1]
  Kd: 0.1 nM
[2]
  Kd: 0.2 nM
[3]
  Kd: 0.5 nM
sc11 DS-Cav1
  Kd: 1.6 nM
[4]
  Kd: 0.2 nM
[5]
  Kd: 0.3 nM
[6]
  Kd: < 0.01 nM
[7]
  Kd: 0.1 nM
[8]
  Kd: 2.8 nM
[9]
  Kd: < 0.01 nM
sc9-24 DS-Cav1
  Kd: 0.3 nM
[10]
  Kd: 0.4 nM
sc9 DS-Cav1-105Q
  Kd: < 0.01 nM
[11]
  Kd: 0.1 nM
[12]
  Kd: < 0.01 nM
sc8 DS-Cav1
  Kd: 3.9 nM
sc9-19 DS-Cav1
  Kd: 0.06 nM
